Source: patent US20200270347A1 (Hoffmann-La Roche, published 2020)
Substitutions are numbered along the chain they refer to. In names and notes the source's numbering stands.

Experiments:
[1] = target: T1, EGFRvIII expressed on the cell surface (CHO-EGFRvIII, DK-MG, U87MG-EGFRvIII cells) (human, UniProt P00533 298-1210); assay: flow cytometry on U87MG-EGFRvIII cells, IgG PGLALA
T1 construct: The cell line of each result is named under assay; Species is stated for the U87 transfectant (human EGFRvIII protein) and the entry; also called EGFRvIII positive cells

[2] = target: T1, EGFRvIII expressed on the cell surface …; assay: flow cytometry on CHO-EGFRvIII cells, IgG
[3] = target: T2, wild-type EGFR on MKN-45 cells (human, UniProt P00533 25-1210); assay: flow cytometry on MKN-45 cells (wild-type EGFR)
T2 construct: MKN-45 is the wild-type EGFR line used to exclude crossreactivity; also called EGFRwt

EGFRvIII-ECD avi his [4] = target: T3, EGFRvIII-ECD avi his (human); assay: SPR, PGLALA IgG captured with anti-PGLALA antibody, EGFRvIII-ECD avi his as analyte, 1:1 Langmuir, 25° C.
T3 construct: Extracellular domain of human EGFRvIII fused to an Avi-tag and a His-tag at the C-terminus; the entry is the whole construct; also called recombinant EGFRvIII; EGFRvIII antigen

EGFRvIII-ECD avi his [5] = target: T3, EGFRvIII-ECD avi his; assay: SPR, ECD antigen captured with anti-His, single injection of antibody at 500 nM
[6] = target: EGFRwt ECD antigen (His-tagged, captured with anti-His) (human, UniProt P00533 25-645); assay: as above
[7] = target: T1, EGFRvIII expressed on the cell surface …; assay: flow cytometry on CHO-EGFRvIII cells, TCB
EGFRvIII-ECD avi his [8] = target: T3, EGFRvIII-ECD avi his; assay: SPR, TCB captured with anti-Fc antibody, EGFRvIII-ECD avi his as analyte, 1:1 fit; CD3opt
[9] = target: T4, heterodimer of human CD3 delta and CD3 epsilon ectodomains fused to a human Fc domain with knob-into-hole … (human); assay: SPR, TCB captured with anti-PGLALA antibody, CD3 antigen as analyte, 1:1 Langmuir; CD3opt; human CD3
T4 construct: Each entry is the whole fusion chain (ectodomain, stalk, Fc, Avi-tag); also called recombinant CD3; recombinant human CD3

[10] = target: T4, heterodimer of human CD3 delta and CD3 …; assay: SPR, relative active concentration after stress
[11] = target: T1, EGFRvIII expressed on the cell surface …; assay: flow cytometry on U87MG-EGFRvIII cells, fluorescently labelled anti-human Fc secondary antibody
[12] = target: T5, heterodimer of cynomolgus CD3 delta and CD3 epsilon ectodomains fused to a human Fc domain with … (cynomolgus); assay: SPR, TCB captured with anti-PGLALA antibody, CD3 antigen as analyte, 1:1 Langmuir; CD3opt; cynomolgus CD3
T5 construct: Each entry is the whole fusion chain; also called Cynomolgus CD3 epsilon stalk-Fc(knob)-Avi / Cynomolgus CD3 delta stalk-Fc(hole)-Avi

EGFRvIII-ECD avi his [13] = target: T3, EGFRvIII-ECD avi his; assay: SPR, TCB captured with anti-Fc antibody, EGFRvIII-ECD avi his as analyte, 1:1 fit; CD3orig
[14] = target: T4, heterodimer of human CD3 delta and CD3 …; assay: SPR, TCB captured with anti-PGLALA antibody, CD3 antigen as analyte, 1:1 Langmuir; CD3orig; human CD3

B1: EGFRvIII antibody P056.021 IgG1 PGLALA (antibody, V domains shown)
VH: EVQLVQSGAEVKKPGESLKISCKGSGYSFDSYWIAWVRQMPGKGLEWMGVIHPYDSDTRYSPSFQGQVTISADKSISTAYLQWSSLKASDTAMYYCARVSRSSYAFDYWGQGTLVTVSS
VL: not shown
notes: Human IgG1 with P329G L234A L235A; also called P056.021 (parental)
EC50 (read off the curve) [1]: ~4 nM
EC50 [2]: 16.5 nM
binding result [3]: no binding (tested: about 140 nM)
Kd (EGFRvIII-ECD avi his [4]): 35 nM
response units (EGFRvIII-ECD avi his [5]): > 50 RU
response units [6]: < 5 RU

B2: EGFRvIII TCB P056.021 (CD3orig) (bispecific antibody, V domains shown)
VH 1: B1 VH
VL 1: not shown
VH 2: not shown
VL 2: QAVVTQEPSLTVSPGGTVTLTCGSSTGAVTTSNYANWVQEKPGQAFRGLIGGTNKRAPGTPARFSGSLLGGKAALTLSGAQPEDEAEYYCALWYSNLWVFGGGTKLTVL
notes: also called parental EGFRvIII TCB P056.021; P056.021 EGFRvIII TCB with CD3orig
EC50 [7]: 13 nM
binding result [3]: no binding (tested: about 140 nM)

B3: EGFRvIII TCB CD3opt (EGFRvIII binder P063.056) (bispecific antibody, human IgG1, kappa, L234A L235A)
heavy 1: not shown
heavy 2: EVQLVQSGAEVKKPGESLKISCKGSGYSFDSYWIAWVRQMPGKGLEWMGVIHPYDSDTRYSPSFQGQVTISADKSISTAYLQWSSLKASDTAMYYCARVSRSSYAFDYWGQGTLVTVSSASTKGPSVFPLAPSSKSTSGGTAALGCLVEDYFPEPVTVSWNSGALTSGVHTFPAVLQSSGLYSLSSVVTVPSSSLGTQTYICNVNHKPSNTKVDEKVEPKSCDKTHTCPPCPAPEAAGGPSVFLFPPKPKDTLMISRTPEVTCVVVDVSHEDPEVKFNWYVDGVEVHNAKTKPREEQYNSTYRVVSVLTVLHQDWLNGKEYKCKVSNKALGAPIEKTISKAKGQPREPQVCTLPPSRDELTKNQVSLSCAVKGFYPSDIAVEWESNGQPENNYKTTPPVLDSDGSFFLVSKLTVDKSRWQQGNVFSCSVMHEALHNHYTQKSLSLSP
light 1: not shown
light 2: EVQLLESGGGLVQPGGSLRLSCAASGFQFSSYAMNWVRQAPGKGLEWVSRIRSKYNNYATYYADSVKGRFTISRDDSKNTLYLQMNSLRAEDTAVYYCVRHTTFPSSYVSYYGYWGQGTLVTVSSASVAAPSVFIFPPSDEQLKSGTASVVCLLNNFYPREAKVQWKVDNALQSGNSQESVTEQDSKDSTYSLSSTLTLSKADYEKHKVYACEVTHQGLSSPVTKSFNRGEC
notes: 2+1 IgG CrossFab, inverted, with charge modifications; also called EGFRvIII TCB P063.056 with CD3opt; 2+1 format
Kd (EGFRvIII-ECD avi his [8]): 6 nM
Kd [9]: 30 nM
binding activity to CD3 after 2 weeks at pH 7.4, 37° C., relative to 2 weeks at pH 6, -80° C. [10]: > 90%
binding result [11]: binds
Kd [12]: 20 nM

B4: EGFRvIII TCB CD3orig (EGFRvIII binder P063.056) (bispecific antibody, human IgG1, kappa, L234A L235A)
heavy 1: not shown
heavy 2: B3 heavy 2
light 1: not shown
light 2: B3 light 2 with Q28T, S31T, T102G, T103N, P105G, S106N, Y111W, Y112F, G113A
notes: 2+1 IgG CrossFab, inverted, with charge modifications; also called EGFRvIII TCB P063.056 with CD3orig
Kd (EGFRvIII-ECD avi his [13]): 6 nM
EC50 (read off the curve) [11]: ~9 nM
Kd [14]: 40 nM
